Experimental data as given in patent US20240252641A1 (TCR2 THERAPEUTICS, published 2024).

T1: CD70 on cells (CHO-CD70, JVM-3, U266, Raji, THP-1, T cells) (human, UniProt P32970 1-193)
T1 construct: whole, on cells; also called cell-surface CD70
T1 sequence (looked up): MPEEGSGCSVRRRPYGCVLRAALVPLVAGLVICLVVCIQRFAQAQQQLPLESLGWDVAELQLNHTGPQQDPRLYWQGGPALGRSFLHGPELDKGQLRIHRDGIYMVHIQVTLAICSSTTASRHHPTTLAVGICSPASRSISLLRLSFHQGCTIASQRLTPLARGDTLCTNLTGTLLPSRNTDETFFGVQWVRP

T2: human CD70, recombinant, N-terminally biotinylated (residues 39-193) (human, UniProt P32970 39-193, N-terminal biotin)
T2 construct: range 39-193; the same entry is used there; also called biotinylated human CD70; CD70 biotin
T2 sequence (looked up): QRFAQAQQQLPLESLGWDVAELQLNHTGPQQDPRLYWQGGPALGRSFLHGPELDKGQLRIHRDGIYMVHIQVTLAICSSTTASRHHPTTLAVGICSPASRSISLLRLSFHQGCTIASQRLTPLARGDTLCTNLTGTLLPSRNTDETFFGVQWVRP

B1: 35-TC6-VII-A09 (scFv)
scFv: EVQLVQSGGGVVQPGRSLRLSCAASGFTFSSYGMHWVRQAPGKGLEWVAVISYDGSNKYYADSVKGRFTISRDNSKNTLYLQMNSLRAEDTAVYYCAKAGAPPHYYYGMDVWGQGTTVTVSSGGSGGSGGSGGSQSALTQPASVSGSPGQSITISCTGTSSDVGGYDYVSWYQQHPGKAPKLMIYEVTDRPSGIPNRFSGSKSGNTASLTISGLQAEDEADYYCSSYTYTSTLEVFGGGTKVTVL
notes: His-tagged
B2: 61-TC7-IV-H08 (scFv)
scFv: QMQLVQSGGGLVQPGRSLRLSCAASGFTFDDYAMHWVRQAPGKGLEWVAVISYDGSNKYYADSVKGRFTISRDNSKNTLYLQMNSLRAEDTAVYYCARSSYDFWSGYPKDMDVWGKGTTVTVSSGGSGGSGGSGGSSSELTQDPAVSVALGQTVRITCQGDSLRSYYASWYQQKPGQAPVLVIYGKNNRPSGIPDRFSGSSSGNTASLTITGAQAEDEADYYCNSRDSSGNHLVVFGGGTKLTVL
notes: His-tagged
B3: 57-TC7-VII-A03 (scFv)
scFv: QVQLQQSGPGLVKASETLSLTCAVSGHSISSSNYWGWIRQPPGKGLEWIGSIYHSGTTYYNPSLKSRVTMSVDTSKNQFSLKLSSVTAADTAVYYCARHGSGDLGYLEYWGQGTLVTVSSGGSGGSGGSGGSSYELTQSPSVSVAPGKTARITCGGNNIGSKSVHWYQQKPGQAPVLVIYYDSDRPSGIPERFSGSNSGNTATLTISRVEAGDEADYYCQVWDSSSDHPVFGGGTKVTVL
notes: His-tagged
B4: 52-TC7-VIII-C02 (scFv)
scFv: QVQLLESGGGVVQPGRSLRLSCAASGFTFSSYGMHWVRQAPGKGLEWVAVISYDGSNKYYADSVKGRFTISRDNSKNTLYLQMNSLRAEDTAVYYCAKGAYYYGSVSGMDVWGQGTTVTVSSGGSGGSGGSGGSSYELTQPVSVSVALGQTARLTCAGNNIGSKNVHWYQQKPSQAPVLVIYNDNIRPNFGIPERFSGSNSGNTATLTISSAQAGDEADYYCQVWDSSTAEVFGGGTKLTVL
notes: His-tagged
B5: 46-TC7-VII-E11 (scFv)
scFv: QVQLVQSGGGVVQPGRSLRLSCAASGFTFSSYAMHWVRQAPGKGLEWVAVISYDGSNKYYADSVKGRFTISRDNSKNTLYLQMNSLRAEDTAVYYCARDSSGYYYGSDAFDIWGQGTMVTVSSGGSGGSGGSGGSSYELTQPPSVSVALGQTVRITCQGDSLRSYYASWYQQKPGQAPVLVIYGKNNRPSGIPDRFSGSSSGNTASLTITGAQAEDEADYYCNSRDSSGNPWVFGGGTKVTVL
notes: His-tagged
B6: 38-TC7-V-G06 (scFv)
scFv: QMQLVQSGAEVKKPGSSVKVSCKASGGTFSSYAISWVRQAPGQGLEWMGWISAYNGNTNYAQKLQGRVTMTTDTSTSTAYMELRSLRSDDTAVYYCARDDYWGQGTLVTVSSGGSGGSGGSGGSSYELTQPPSVSVAPGKTARITCSGDVLGENYADWYQQKPGQAPELVIYEDSERYPGIPERFSGSTSGNTTTLTISRVLTEDEADYYCLSGDEDNRVFGGGTKLTVL
notes: His-tagged
B7: 40-TC7-VI-F11 (scFv)
scFv: EVQLVESGGGVVQPGRSLRLSCAASGFTFSSYAMHWVRQAPGKGLEWVAVISYDGSNKYYADSVKGRFTISRDNSKNTLYLQMNSLRAEDTAVYYCARDGYGFDYWGQGTLVTVSSGGSGGSGGSGGSSYELTQSPSVSVAPGQTARITCGGNNIGSKSVHWYQQKPGQAPVLVVYDDSDRPSGIPERFSGSNSGNTATLTISRVEAGDEADYYCQVWDSSTPYVFGTGTKLTVL
notes: His-tagged
B8: 56-TC7-VI-H08 (scFv)
scFv: QMQLVQSGAEVKKPGASVKVSCKASGYTFTSYYMHWVRQAPGQGLEWMGIINPSGGSTSYAQKFQGRVTMTRDTSTSTAYMELRSLRSDDTAVYYCARGWETNDAFDIWGQGTMVTVSSGGSGGSGGSGGSQSVLTQPPSVSGAPGQKVTISCSGSNSNVGNHYLSWYQHLPGTAPRLLIFDNNKRPSGIPDRFSGSKSGASATLDITGLQTGDEADYFCGTWDSRLNVWVFGGGTKLTVL
notes: His-tagged
B9: 55-TC4-IX-G04 (scFv)
scFv: QVQLLESGGGVVQPGRSLRLSCAASGFTFSSYAMHWVRQAPGKGLEWVAVISYDGSNKYYADSVKGRFTISRDNSKNTLYLQMNSLRAEDTAVYYCARGLGFGSGWYEYVDAFDIWGQGTMVTVSSGGSGGSGGSGGSQSVLTQPASVSGSPGQSITISCTGTSSDVGSYNLVSWYQQHPGKAPKLMIYEVSKRPSGVSNRFSGSKSGNTASLTISGLQAEDEADYYCSSYRSNNTPWVFGGGTKLTVL
notes: His-tagged
B10: 62-TC7-V-D08 (scFv)
scFv: QVQLQQWGAGLLKPSETLSLTCAVYGGSFSGYYWSWIRQPPGKGLEWIGEINHSGSTNYNPSLKSRVTISVDTSKNQFSLKLSSVTAADTAVYYCARVARGKGAFDIWGQGTMVTVSSGGSGGSGGSGGSQSALTQPASVSGSPGQSITISCTGTSSDVGGYNYVSWYQQHPGKAPKLLIYEVSSRPSGVSNRFSGSKSGNTASLTISGLQAEDEADYYCNSYTNSGSWVFGGGTKVTVL
notes: His-tagged
B11: 54-TC7-V-D10 (scFv)
scFv: QVQLQQWGAGLLKPSETLSLTCAVYGGSFSGYYWSWIRQPPGKGLEWIGEINHSGSTNYNPSLKSRVTISVDTSKNQFSLKLSSVTAADTAVYYCARGGYRSYWYFDLWGRGTLVTVSSGGSGGSGGSGGSQSALTQPASVSGSPGQSITISCTGTSSDVGGYNSVSWYQHHPGKAPKLMIYDVSDRPSGVSDRFSGSKSGNTASLTISGLQAEDEADYYCSSYAGSNNVVFGGGTKVTVL
notes: His-tagged
B12: 51-TC7-VIII-G06 (scFv)
scFv: QVQLLESGGGLVQPGRSLRLSCAASGFTFDDYAMHWVRQAPGKGLEWVSGITWNSGSIGYADSVKGRFTISRDNAKNSLYLQMNSLRAEDTAVYYCAREVAARPFYYYGMDVWGQGTTVTVSSGGSGGSGGSGGSQSVLTQPPSVSVAPGKTARITCGGNNIGSKSVHWYQQKPGQAPVLVVYDDSDRPSGIPERFSGSNSGNTATLTISGTQAMDEADYYCQAWDSSTVFGGGTKLTVL
notes: His-tagged

Biological target: T1, CD70 on cells (CHO-CD70, JVM-3, U266, …)
Test: 1.25 µg/mL scFv on CHO-CD70 cells
Method in brief: (§1)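 Tumour cell lines with high CD70 expression (CHO-CD70, JVM3, U266) or low CD70 expression (CHO WT, K562) were used to assess cell binding of human scFv antibodies, with results recorded per line. These antibodies had been selected by panning a naïve human library on the CD70 extracellular domain (aa39-193).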

cell binding	Binder
1.15e+06	B1
64900	B2
163000	B3
430000	B4
76200	B5
1.34e+06	B6
235000	B7
296000	B8
87200	B9
286000	B10
240000	B11
170000	B12

Biological target: T2, human CD70, recombinant, N-terminally …
Test: CD27 blocking ELISA, 3 µM scFv, strep/HRP

strep/HRP	Binder
1.49	B1
1.52	B2
1.49	B3
0.533	B4
1.26	B5
1.53	B6
1.37	B7
1.44	B8
1.28	B9
1.54	B10
1.17	B11
1.46	B12

Biological target: T1, CD70 on cells (CHO-CD70, JVM-3, U266, …)
Test: 1.25 µg/mL scFv on U266 cells
Method in brief: as §1

cell binding	Binder
16500	B1
947	B2
3150	B3
2980	B4
2290	B5
16900	B6
11800	B7
6310	B8
2700	B9
35300	B10
1140	B11
2140	B12

Biological target: T2, human CD70, recombinant, N-terminally …
Test: SPR
Method in brief: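 Human scFv antibodies came from panning a naïve human library against the CD70 extracellular domain (aa39-193). Their affinity (Kd) for recombinant, N-terminally biotinylated human CD70 was measured by surface plasmon resonance (SPR) analysis.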

Kd [nM]	Binder
367	B1
332	B2
853	B3
64.6	B4
180	B5
182	B6
279	B7
535	B8
984	B9
194	B10
209	B11
532	B12

Biological target: T1, CD70 on cells (CHO-CD70, JVM-3, U266, …)
Test: 1.25 µg/mL scFv on JVM-3 cells
Method in brief: as §1

cell binding	Binder
18800	B1
1070	B2
1640	B3
8050	B4
1790	B5
27400	B6
4870	B7
2360	B8
3570	B9
45200	B10
2130	B11
4260	B12

Biological target: T2, human CD70, recombinant, N-terminally …
Test: CD27 blocking ELISA, 3 µM scFv, anti-His/HRP
Method: Human scFv antibodies binding CD70 were generated by panning a naïve human library with the extracellular domain (aa39-193) of CD70. 53 antibodies were identified. The ability of CD27 to block CD70 binding of the identified antibodies was measured by ELISA using two different assays. In the first assay, CD27 and his-tagged scFv anti-CD70 binders were simultaneously added to surface bound CD70, and the ability of the scFv binders to bind CD70 was detected with anti-His HRP. In the second assay, plate-bound CD70 was pre-incubated with CD27 for 30 minutes, and then additional CD27 and the his-tagged scFv anti-CD70 binder was added. The ability of the scFv binders to bind CD70 was detected with anti-His HRP. FIG. 34 is a schematic of the two different CD27 blocking assays. CD70 affinity was also measured by SPR analysis. scFv antibodies were also tested for their ability to bind tumor cell lines with high (CHO-CD70, JVM3, and U266) and low levels (CHO WT and K562 of CD70 expression. Results for 39 antibodies are shown in Table 1 below.

anti His/HRP	Binder
0.639	B1
0.711	B2
1.89	B3
1.56	B4
2.28	B5
1.02	B6
1.84	B7
1.5	B8
1.24	B9
2	B10
1.46	B11
0.676	B12
